Measured values published in the supplement of paper PMC7125110.
± gives the standard error. For some of these results: This sample holds only a part of the variants without activity.

B1: glmS ribozyme (parent)
chain: AUAAAAGCGCCAGAACUACAGAAAUGUAGUUGACGAGGAGGAGGUUUAUCGAAUUUUCGGCGGAUGCCUCCAAA

Tests used:
Conditions in all cases: with glucosamine-6-phosphate
glucosamine-6-phosphate [1] = variants of: B1; assay: kcat; higher = faster cleavage; RNA array
How it was run: (§1)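 Ribozyme variants carrying barcodes were transcribed in situ on sequenced MiSeq chips by E. coli RNA polymerase and tracked at 37 °C with a hybridised Cy3 probe. They were exposed to 40 μM to 10 mM glucosamine-6-phosphate in HEPES/KCl/Mg(OAc)2 buffer. kobs came from exponential decay fits of normalised per-tile medians, and kcat and KM from weighted Michaelis–Menten fits.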

glucosamine-6-phosphate [2] = variants of: B1; assay: KM; higher = weaker cofactor use; RNA array
How it was run: as §1

glucosamine-6-phosphate [3] = variants of: B1; assay: self-cleavage kobs at 640 uM GlcN6P; higher = faster cleavage; RNA array
How it was run: as §1

glucosamine-6-phosphate [4] = variants of: B1; assay: self-cleavage kobs at 2500 uM GlcN6P; higher = faster cleavage; RNA array
How it was run: as §1

glucosamine-6-phosphate [5] = variants of: B1; assay: self-cleavage kobs at 10000 uM GlcN6P; higher = faster cleavage; RNA array
How it was run: as §1

glucosamine-6-phosphate [6] = variants of: B1; assay: self-cleavage kobs at 40 uM GlcN6P; higher = faster cleavage; RNA array
How it was run: as §1

glucosamine-6-phosphate [7] = variants of: B1; assay: self-cleavage kobs at 160 uM GlcN6P; higher = faster cleavage; RNA array
How it was run: as §1

Variant	kcat (glucosamine-6-phosphate [1])	KM (glucosamine-6-phosphate [2])	self-cleavage kobs at 640 uM GlcN6P (glucosamine-6-phosphate [3])	self-cleavage kobs at 2500 uM GlcN6P (glucosamine-6-phosphate [4])	self-cleavage kobs at 10000 uM GlcN6P (glucosamine-6-phosphate [5])	self-cleavage kobs at 40 uM GlcN6P (glucosamine-6-phosphate [6])	self-cleavage kobs at 160 uM GlcN6P (glucosamine-6-phosphate [7])
C11A G59A	0.000719 ± 4.8e-05 s⁻¹	4140 ± 480 µM	9.86e-05 ± 1.6e-05 s⁻¹	0.000248 ± 5e-05 s⁻¹	0.000516 ± 5.9e-05 s⁻¹	–	–
C8G U57A C70A	5.04e-05 ± 1.1e-05 s⁻¹	–	–	–	–	–	–
A6U C68G	1.22e-05 ± 3e-06 s⁻¹	–	–	–	–	–	–
A6U C68U	8.73e-05 ± 5.1e-06 s⁻¹	491 ± 140 µM	4.75e-05 ± 8.3e-06 s⁻¹	8.07e-05 ± 9e-06 s⁻¹	8e-05 ± 7.3e-06 s⁻¹	–	–
C11A U54C	0.000278 ± 3.7e-05 s⁻¹	4640 ± 1100 µM	3.08e-05 ± 1e-05 s⁻¹	0.00011 ± 2.9e-05 s⁻¹	0.000186 ± 3.4e-05 s⁻¹	–	–
G7U C16U C50G U69G	0.000615 ± 0.00015 s⁻¹	–	0.0012 ± 0.00039 s⁻¹	0.000564 ± 0.0002 s⁻¹	0.00054 ± 0.00017 s⁻¹	0.00029 ± 0.00013 s⁻¹	–
A6C G29C	< 1e-05 s⁻¹	–	–	–	–	–	< 1e-05 s⁻¹
C11A C67A	6.14e-05 ± 1e-05 s⁻¹	–	7.25e-05 ± 1.2e-05 s⁻¹	6.18e-05 ± 1.1e-05 s⁻¹	5.12e-05 ± 9.8e-06 s⁻¹	–	–
C10U A39G	3.18e-05 ± 4e-06 s⁻¹	–	–	4.09e-05 ± 2e-05 s⁻¹	2.93e-05 ± 8.6e-06 s⁻¹	< 1e-05 s⁻¹	–
G9C G38C C67A U69C	< 1e-05 s⁻¹	–	–	–	–	–	–
C8A G37C G38A C70U	1.14e-05 ± 3.5e-06 s⁻¹	–	–	–	–	–	–
C10U U54G	< 1e-05 s⁻¹	–	–	–	–	< 1e-05 s⁻¹	–
C10U U54C	2.54e-05 ± 7.7e-06 s⁻¹	–	–	3.09e-05 ± 1.2e-05 s⁻¹	–	< 1e-05 s⁻¹	–
C11A U31C	7.57e-05 ± 7.2e-06 s⁻¹	1620 ± 610 µM	–	5.09e-05 ± 1.4e-05 s⁻¹	6.39e-05 ± 1.1e-05 s⁻¹	–	–
G9A G37U C70G	1.52e-05 ± 2.5e-06 s⁻¹	–	–	< 1e-05 s⁻¹	–	–	–
A6G A39C	0.00012 ± 4e-06 s⁻¹	1580 ± 180 µM	3.27e-05 ± 8.5e-06 s⁻¹	7.92e-05 ± 1.4e-05 s⁻¹	0.000103 ± 8.7e-06 s⁻¹	–	–
C10U U31G	2.34e-05 ± 1.5e-06 s⁻¹	552 ± 200 µM	–	–	–	< 1e-05 s⁻¹	–
C10G U54A	< 1e-05 s⁻¹	–	–	–	–	< 1e-05 s⁻¹	–
C10G A52U	< 1e-05 s⁻¹	–	< 1e-05 s⁻¹	–	–	< 1e-05 s⁻¹	< 1e-05 s⁻¹
G7A U54C	1.94e-05 ± 3.6e-06 s⁻¹	–	–	–	–	–	–
C11A C71A	6.72e-05 ± 2.1e-05 s⁻¹	–	–	2.11e-05 ± 9e-06 s⁻¹	4.87e-05 ± 6.4e-06 s⁻¹	–	–
C11A C71G	5.67e-05 ± 6.5e-06 s⁻¹	–	–	4.99e-05 ± 1.2e-05 s⁻¹	5.95e-05 ± 1.3e-05 s⁻¹	–	–

Variant	kcat (glucosamine-6-phosphate [1])	KM (glucosamine-6-phosphate [2])	self-cleavage kobs at 640 uM GlcN6P (glucosamine-6-phosphate [3])	self-cleavage kobs at 2500 uM GlcN6P (glucosamine-6-phosphate [4])	self-cleavage kobs at 10000 uM GlcN6P (glucosamine-6-phosphate [5])	self-cleavage kobs at 40 uM GlcN6P (glucosamine-6-phosphate [6])	self-cleavage kobs at 160 uM GlcN6P (glucosamine-6-phosphate [7])
C10G C68G	5.21e-05 ± 1.5e-05 s⁻¹	–	4.42e-05 ± 1.8e-05 s⁻¹	4.78e-05 ± 1.7e-05 s⁻¹	–	–	–
G9A G38U	< 1e-05 s⁻¹	–	< 1e-05 s⁻¹	–	–	–	–
G7A U69C	< 1e-05 s⁻¹	–	–	–	–	–	< 1e-05 s⁻¹
C11G C67G	3.76e-05 ± 1.2e-05 s⁻¹	–	5.1e-05 ± 1.3e-05 s⁻¹	–	–	–	–
C8U C61A	< 1e-05 s⁻¹	–	–	–	–	–	–
A6G G32A	< 1e-05 s⁻¹	–	–	–	–	< 1e-05 s⁻¹	–
C11G A48G G59C	0.000345 ± 1.4e-05 s⁻¹	1870 ± 150 µM	8.84e-05 ± 2.1e-05 s⁻¹	0.0002 ± 3.7e-05 s⁻¹	0.000286 ± 7.5e-05 s⁻¹	–	–
G7U A14U G29A G37U C61G U69C	0.000491 ± 3.7e-05 s⁻¹	143 ± 19 µM	0.000389 ± 0.00014 s⁻¹	0.000446 ± 0.00019 s⁻¹	–	0.000105 ± 2.3e-05 s⁻¹	0.000282 ± 7.4e-05 s⁻¹
C10A G38C	< 1e-05 s⁻¹	–	< 1e-05 s⁻¹	–	–	–	< 1e-05 s⁻¹
G7A A15G U54G	3.72e-05 ± 1.5e-05 s⁻¹	–	–	–	–	< 1e-05 s⁻¹	< 1e-05 s⁻¹
C10G C58A	1.01e-05 ± 1.8e-06 s⁻¹	–	< 1e-05 s⁻¹	–	< 1e-05 s⁻¹	–	–
C11A U56G	0.00015 ± 3.9e-05 s⁻¹	–	6.35e-05 ± 1.2e-05 s⁻¹	7.76e-05 ± 1.1e-05 s⁻¹	0.000155 ± 1.9e-05 s⁻¹	–	–
G7A G62U	< 1e-05 s⁻¹	–	< 1e-05 s⁻¹	–	< 1e-05 s⁻¹	< 1e-05 s⁻¹	–
C8U U31A	< 1e-05 s⁻¹	–	< 1e-05 s⁻¹	–	–	–	–
A6C A53C	2.09e-05 ± 4.9e-07 s⁻¹	1550 ± 150 µM	< 1e-05 s⁻¹	–	–	–	< 1e-05 s⁻¹
C10G A14G G32C G37A C67G	2.2e-05 ± 6.4e-06 s⁻¹	–	–	–	–	–	–
C11A A14G	0.000935 ± 5.4e-05 s⁻¹	1790 ± 200 µM	0.000261 ± 3.2e-05 s⁻¹	0.00051 ± 7.7e-05 s⁻¹	0.000802 ± 7.8e-05 s⁻¹	1.65e-05 ± 7.4e-06 s⁻¹	7.64e-05 ± 2e-05 s⁻¹
A6G G29U	8.41e-05 ± 9.3e-06 s⁻¹	3850 ± 1100 µM	–	3.54e-05 ± 1e-05 s⁻¹	6.03e-05 ± 9e-06 s⁻¹	–	–
G9A U47G	< 1e-05 s⁻¹	–	< 1e-05 s⁻¹	–	–	–	–
A6G U69G	1.01e-05 ± 1.6e-06 s⁻¹	–	–	–	–	< 1e-05 s⁻¹	–
C10U A33U	4.38e-05 ± 4e-06 s⁻¹	–	–	4.07e-05 ± 1.2e-05 s⁻¹	3.99e-05 ± 6.2e-06 s⁻¹	< 1e-05 s⁻¹	–
A6G A14C	0.000105 ± 2.8e-06 s⁻¹	2620 ± 210 µM	–	5.24e-05 ± 8.1e-06 s⁻¹	8.29e-05 ± 7.7e-06 s⁻¹	–	–
